In US20120316071A1 (published 2012):

T1: rHuman Erythropoietin R/Fc Chimera, CF (R&D Systems Cat#963-ER) (human, UniProt P19235 25-250)
T1 construct: Bought recombinant Fc chimera; also called EPO R; EPO R/Fc; Fc part of the bought chimera not given
T1 sequence (looked up): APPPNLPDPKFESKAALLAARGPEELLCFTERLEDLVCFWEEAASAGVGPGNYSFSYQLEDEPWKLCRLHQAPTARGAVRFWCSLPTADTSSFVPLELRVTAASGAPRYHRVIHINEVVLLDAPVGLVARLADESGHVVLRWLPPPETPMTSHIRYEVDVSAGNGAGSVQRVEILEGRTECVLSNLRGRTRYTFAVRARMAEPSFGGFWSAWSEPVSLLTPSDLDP


Legend:
[1] = target: T2, rHuman ErbB2/Fc Chimera, CF (R&D Systems Cat#1129-ER) (human, UniProt P04626 23-652); test: ECL multispot (MSD), antigen spotted, Fab in solution;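 also: purified Fab incubated 1 h at 20 °C on antigen-spotted wells, bound Fab detected via TAG detection antibody, ECL compared with each well's blank, ratio of 4 or above scored as hit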
T2 construct: Bought recombinant Fc chimera; also called human epidermal growth factor 2 receptor; Fc part of the bought chimera not given

[2] = target: T3, rHuman EGF R/Fc Chimera, CF (R&D Systems Cat#344-ER) (human, UniProt P00533 25-645); test: as above
T3 construct: Bought recombinant Fc chimera; also called epidermal growth factor receptor; Fc part of the bought chimera not given

[3] = target: T4, rHuman HGF R/c-MET/Fc Chimera, CF (R&D Systems Cat#358-MT/CF) (human, UniProt P08581 25-932); test: as above
T4 construct: Bought recombinant Fc chimera; also called HGF R/Fc; hepatocyte growth factor receptor; Fc part of the bought chimera not given

[4] = target: T5, rHuman Notch-1/Fc Chimera, CF (R&D Systems Cat#3647-TK) (human, UniProt P46531 19-526); test: as above
T5 construct: Bought recombinant Fc chimera; Fc part of the bought chimera not given

[5] = target: T6, rHuman CD44/Fc Chimera, CF (R&D Systems Cat#3660-CD) (human, UniProt P16070 21-220); test: as above
T6 construct: Bought recombinant Fc chimera; Fc part of the bought chimera not given

[6] = target: T7, rHuman IGF-1 sR, (IGF-1 sR), CF (R&D Systems Cat#391-GR) (human, UniProt P08069 31-932); test: as above
T7 construct: Bought recombinant soluble receptor; The column head prints only 'IGF-1'; also called insulin-like growth factor-1 soluble receptor

[7] = target: T8, rHuman P-Cadherin/Fc Chimera, CF (R&D Systems Cat#861-PC) (human, UniProt P22223 108-654); test: as above
T8 construct: Bought recombinant Fc chimera; Fc part of the bought chimera not given

[8] = target: T1, rHuman Erythropoietin R/Fc Chimera, CF …; test: as above
[9] = target: T9, rHuman ErbB2/Fc Chimera, CF (R&D Systems Cat#1129-ER) (human, UniProt P04626 23-652); test: ECL multispot (MSD) binding assay, antigen spotted on plate;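 also: purified Fab incubated 1 h at 20 °C on antigen spots, detected with TAG-labelled antibody, electrochemiluminescence compared with each well's blank, signal-to-blank ratio ≥4 counted as hit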
T9 construct: Bought recombinant protein; also called human epidermal growth factor 2 receptor

[10] = target: T10, rHuman EGF R/Fc Chimera, CF (R&D Systems Cat#344-ER) (human, UniProt P00533 25-645); test: as above
T10 construct: Bought recombinant protein; also called epidermal growth factor receptor

[11] = target: T11, rHuman HGF R/c-MET/Fc Chimera, CF (R&D Systems Cat#358-MT/CF) (human, UniProt P08581 25-932); test: as above
T11 construct: Bought recombinant protein; also called HGF R/Fc; hepatocyte growth factor receptor

[12] = target: T12, rHuman IGF-1 sR, (IGF-1 sR), CF (R&D Systems Cat#391-GR) (human, UniProt P08069 31-932); test: as above
T12 construct: Bought recombinant soluble receptor; also called insulin-like growth factor-1 soluble receptor

[13] = target: T13, rHuman P-Cadherin/Fc Chimera, CF (R&D Systems Cat#861-PC) (human, UniProt P22223 108-654); test: as above
T13 construct: Bought recombinant protein

[14] = target: T14, Recombinant Human DLL4 (R&D Systems Cat#1506-D4/CF) (human, UniProt Q9NR61 27-524); test: as above
T14 construct: Bought recombinant protein; also called delta-like protein 4; rHuman DLL4

| Binder | ECL signal [1] | ECL signal [2] | ECL signal [3] | ECL signal [4] | ECL signal [5] | ECL signal [6] | ECL signal [7] | ECL signal [8] | ECL signal [9] | ECL signal [10] | ECL signal [11] | ECL signal [12] | ECL signal [13] | ECL signal [14] |
| --- | --- | --- | --- | --- | --- | --- | --- | --- | --- | --- | --- | --- | --- | --- |
| Fab VH1-46_IGHD6-6*01_IGHJ1*01 S102A/S103P/S104F/H111F (APFF) & L6_IGKJ1*01 S28N (Fab, V domains shown, Fab; VH cloned into Plasmid A (CH1, His6 and Flag tags) and VL into Plasmid C (kappa CL); also called APFF / S28N) VH: QVQLVQSGAEVKKPGASVKVSCKASGYTFTSYYMHWVRQAPGQGLEWMGIINPSGGSTSYAQKFQGRVTMTRDTSTSTVYMELSSLRSEDTAVYYCAREEYAPFSAEYFQFWGQGTLVTVSS VL: EIVLTQSPATLSLSPGERATLSCRASQNVSSYLAWYQQKPGQAPRLLIYDASNRATGIPARFSGSGSGTDFTLTISSLEPEDFAVYYCQQRSNWPPWTFGQGTKVEIKR | 363 | 325 | 406 | 243 | 399 | 331 | 447 | 440 |  |  |  |  |  |  |
| Fab VH1-46_IGHD6-6*01_IGHJ1*01 S102A/S103P/S104F/H111F (APFF) & L6_IGKJ1*01 (Fab, V domains shown, Tested as Fab made in E. coli: VH in Plasmid A (CH1, His6 and Flag tags), VL in Plasmid C (kappa CL); also called APFF / parent; H:APFF & L:wt) VH: QVQLVQSGAEVKKPGASVKVSCKASGYTFTSYYMHWVRQAPGQGLEWMGIINPSGGSTSYAQKFQGRVTMTRDTSTSTVYMELSSLRSEDTAVYYCAREEYAPFSAEYFQFWGQGTLVTVSS VL: not shown |  |  |  |  |  |  |  |  | 312 | 370 | 347 | 433 | 450 | 172000 |
| Fab VH1-46_IGHD6-6*01_IGHJ1*01 S102A/S103P/S104F/H111F (APFF) & L6_IGKJ1*01 S28H (Fab, V domains shown, Fab; VH cloned into Plasmid A (CH1, His6 and Flag tags) and VL into Plasmid C (kappa CL); also called APFF / S28H) VH: QVQLVQSGAEVKKPGASVKVSCKASGYTFTSYYMHWVRQAPGQGLEWMGIINPSGGSTSYAQKFQGRVTMTRDTSTSTVYMELSSLRSEDTAVYYCAREEYAPFSAEYFQFWGQGTLVTVSS VL: EIVLTQSPATLSLSPGERATLSCRASQHVSSYLAWYQQKPGQAPRLLIYDASNRATGIPARFSGSGSGTDFTLTISSLEPEDFAVYYCQQRSNWPPWTFGQGTKVEIKR | 381 | 435 | 346 | 482 | 513 | 355 | 447 | 517 |  |  |  |  |  |  |

The remaining lines, values ahead:

| ECL signal [1] | ECL signal [2] | ECL signal [3] | ECL signal [4] | ECL signal [5] | ECL signal [6] | ECL signal [7] | ECL signal [8] | ECL signal [9] | ECL signal [10] | ECL signal [11] | ECL signal [12] | ECL signal [13] | ECL signal [14] | Binder |
| --- | --- | --- | --- | --- | --- | --- | --- | --- | --- | --- | --- | --- | --- | --- |
| 316 | 283 | 414 | 349 | 404 | 489 | 385 | 489 |  |  |  |  |  |  | Fab VH1-46_IGHD6-6*01_IGHJ1*01 S102A/S103P/S104F/H111F (APFF) & L6_IGKJ1*01 S28W (Fab, V domains shown, Fab; VH cloned into Plasmid A (CH1, His6 and Flag tags) and VL into Plasmid C (kappa CL); also called APFF / S28W) VH: QVQLVQSGAEVKKPGASVKVSCKASGYTFTSYYMHWVRQAPGQGLEWMGIINPSGGSTSYAQKFQGRVTMTRDTSTSTVYMELSSLRSEDTAVYYCAREEYAPFSAEYFQFWGQGTLVTVSS VL: EIVLTQSPATLSLSPGERATLSCRASQWVSSYLAWYQQKPGQAPRLLIYDASNRATGIPARFSGSGSGTDFTLTISSLEPEDFAVYYCQQRSNWPPWTFGQGTKVEIKR |
| 271 | 320 | 305 | 382 | 313 | 341 | 410 | 360 |  |  |  |  |  |  | Fab VH1-46_IGHD6-6*01_IGHJ1*01 S102A/S103P/S104F/H111F (APFF) & L6_IGKJ1*01 S28M (Fab, V domains shown, Fab; VH cloned into Plasmid A (CH1, His6 and Flag tags) and VL into Plasmid C (kappa CL); also called APFF / S28M) VH: QVQLVQSGAEVKKPGASVKVSCKASGYTFTSYYMHWVRQAPGQGLEWMGIINPSGGSTSYAQKFQGRVTMTRDTSTSTVYMELSSLRSEDTAVYYCAREEYAPFSAEYFQFWGQGTLVTVSS VL: EIVLTQSPATLSLSPGERATLSCRASQMVSSYLAWYQQKPGQAPRLLIYDASNRATGIPARFSGSGSGTDFTLTISSLEPEDFAVYYCQQRSNWPPWTFGQGTKVEIKR |
